Data published in patent publication US20260007703A1.

Molecular target: CD47 on A20 murine lymphoma cells (mouse) (UniProt Q61735)
Assay: cell-based or functional assay

Sequence of UniProt Q61735 (Q61735 19-303): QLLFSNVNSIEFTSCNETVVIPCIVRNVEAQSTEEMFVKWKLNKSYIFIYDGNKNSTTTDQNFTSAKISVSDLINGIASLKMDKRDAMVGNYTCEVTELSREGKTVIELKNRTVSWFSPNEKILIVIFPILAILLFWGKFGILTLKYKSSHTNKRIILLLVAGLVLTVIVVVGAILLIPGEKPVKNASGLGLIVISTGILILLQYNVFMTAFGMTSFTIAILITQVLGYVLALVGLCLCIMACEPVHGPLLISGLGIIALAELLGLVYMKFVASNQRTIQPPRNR

phagocytosis of DiI-labelled A20 tumor cells by bone marrow-derived macrophages: 60 % increase
Substance: FITC-labeled anti-mouse CD47 monoclonal antibody, clone miap301
